Data taken from patent publication US20020058247A1 (TRIPEP, published 2002).

B1: VDKSSSTAYMELTRLTSEDS (SEQ. ID. No. 11) (peptide)
peptide: VDKSSSTAYMELTRLTSEDS
notes: also called Peptide # 8
B2: ELTRLTSEDSAVYFCARGDY (SEQ. ID. No. 12) (peptide)
peptide: ELTRLTSEDSAVYFCARGDY
notes: also called Peptide # 9
B3: AVYFCARGDYDYYRRYFDLW (SEQ. ID. No. 13) (peptide)
peptide: AVYFCARGDYDYYRRYFDLW
notes: also called Peptide # 10
B4: DYYRRYFDLWGQGTTVTVS (SEQ. ID. No. 14) (peptide)
peptide: DYYRRYFDLWGQGTTVTVS
notes: also called Peptide # 11
B5: TSSYSYMHWYQQKPGQPPKL (SEQ. ID. No. 18) (peptide)
peptide: TSSYSYMHWYQQKPGQPPKL
B6: LIKYASNLESGVPARFSGSG (SEQ. ID. No. 20) (peptide)
peptide: LIKYASNLESGVPARFSGSG
B7: GVPARFSGSGSGTDFTLNIH (SEQ. ID. No. 21) (peptide)
peptide: GVPARFSGSGSGTDFTLNIH
B8: SGTDFTLNIHPVEEEDTATY (SEQ. ID. No. 22) (peptide)
peptide: SGTDFTLNIHPVEEEDTATY
B9: PVEEEDTATYYCQHSWEIPY (SEQ. ID. No. 23) (peptide)
peptide: PVEEEDTATYYCQHSWEIPY
notes: also called Peptide # 20
B10: YCQHSWEIPYTFGGGTKLEI (SEQ. ID. No. 24) (peptide)
peptide: YCQHSWEIPYTFGGGTKLEI
notes: also called Peptide # 21
B11: TFGGGTKLEIKRADAAPAV (SEQ. ID. No. 25) (peptide)
peptide: TFGGGTKLEIKRADAAPAV
notes: also called Peptide # 22
B12: KRADAAPAVSIFPPSSKLG (SEQ. ID. No. 26) (peptide)
peptide: KRADAAPAVSIFPPSSKLG
notes: also called Peptide # 23
B13: IQLQQSGAELVKPGASVKIS (SEQ. ID. No. 27) (peptide)
peptide: IQLQQSGAELVKPGASVKIS
notes: also called Peptide # 24
B14: GKSLEWIGNINPYYGSTSYN (SEQ. ID. No. 31) (peptide)
peptide: GKSLEWIGNINPYYGSTSYN
notes: also called Peptide # 28
B15: NPYYGSTSYNQKFKGKATLT (SEQ. ID. No. 32) (peptide)
peptide: NPYYGSTSYNQKFKGKATLT
notes: also called Peptide # 29
B16: QKFKGKATLTVDKSSSTAYM (SEQ. ID. No. 33) (peptide)
peptide: QKFKGKATLTVDKSSSTAYM
notes: also called Peptide # 30
B17: VDKSSSTAYMQLNSLTSEDS (SEQ. ID. No. 34) (peptide)
peptide: VDKSSSTAYMQLNSLTSEDS
notes: also called Peptide # 31
B18: QLNSLTSEDSAVYYCARGKG (SEQ. ID. No. 35) (peptide)
peptide: QLNSLTSEDSAVYYCARGKG
notes: also called Peptide # 32
B19: AVYYCARGKGTGFAYWGQGT (SEQ. ID. No. 36) (peptide)
peptide: AVYYCARGKGTGFAYWGQGT
notes: also called Peptide # 33
B20: TGFAYWGQGTLVTVSAAKTT (SEQ. ID. No. 37) (peptide)
peptide: TGFAYWGQGTLVTVSAAKTT
notes: also called Peptide # 34
B21: LVTVSAAKTTPPSVYPLVPV (SEQ. ID. No. 38) (peptide)
peptide: LVTVSAAKTTPPSVYPLVPV
notes: also called Peptide # 35
B22: KPGASVKLSCKASGYIFTS (SEQ. ID. No. 39) (peptide)
peptide: KPGASVKLSCKASGYIFTS
B23: PGASVKLSCKASGYIFTS (SEQ. ID. No. 40) (peptide)
peptide: PGASVKLSCKASGYIFTS
B24: GASVKLSCKASGYIFTS (SEQ. ID. No. 41) (peptide)
peptide: GASVKLSCKASGYIFTS
B25: ASVKLSCKASGYIFTS (SEQ. ID. No. 42) (peptide)
peptide: ASVKLSCKASGYIFTS
B26: SVKLSCKASGYIFTS (SEQ. ID. No. 43) (peptide)
peptide: SVKLSCKASGYIFTS
B27: VKLSCKASGYIFTS (SEQ. ID. No. 44) (peptide)
peptide: VKLSCKASGYIFTS
B28: KLSCKASGYIFTS (SEQ. ID. No. 45) (peptide)
peptide: KLSCKASGYIFTS
B29: LSCKASGYIFTS (SEQ. ID. No. 46) (peptide)
peptide: LSCKASGYIFTS
B30: SCKASGYIFTS (SEQ. ID. No. 47) (peptide)
peptide: SCKASGYIFTS
B31: CKASGYIFTS (SEQ. ID. No. 48) (peptide)
peptide: CKASGYIFTS
B32: KASGYIFTS (SEQ. ID. No. 49) (peptide)
peptide: KASGYIFTS
B33: ASGYIFTS (SEQ. ID. No. 50) (peptide)
peptide: ASGYIFTS
B34: SGYIFTS (SEQ. ID. No. 51) (peptide)
peptide: SGYIFTS
B35: GYIFTS (SEQ. ID. No. 52) (peptide)
peptide: GYIFTS
B36: SCRASQSVSTSSYSYMHWY (SEQ. ID. No. 53) (peptide)
peptide: SCRASQSVSTSSYSYMHWY
B37: CRASQSVSTSSYSYMHWY (SEQ. ID. No. 54) (peptide)
peptide: CRASQSVSTSSYSYMHWY
B38: ASQSVSTSSYSYMHWY (SEQ. ID. No. 56) (peptide)
peptide: ASQSVSTSSYSYMHWY
B39: SQSVSTSSYSYMHWY (SEQ. ID. No. 57) (peptide)
peptide: SQSVSTSSYSYMHWY
B40: QSVSTSSYSYMHWY (SEQ. ID. No. 58) (peptide)
peptide: QSVSTSSYSYMHWY
B41: SVSTSSYSYMHWY (SEQ. ID. No. 59) (peptide)
peptide: SVSTSSYSYMHWY
B42: VSTSSYSYMHWY (SEQ. ID. No. 60) (peptide)
peptide: VSTSSYSYMHWY
B43: STSSYSYMHWY (SEQ. ID. No. 61) (peptide)
peptide: STSSYSYMHWY
B44: TSSYSYMHWY (SEQ. ID. No. 62) (peptide)
peptide: TSSYSYMHWY
B45: SSYSYMHWY (SEQ. ID. No. 63) (peptide)
peptide: SSYSYMHWY
B46: SYSYMHWY (printed with SEQ. ID. No. 63, a number already used for …) (peptide)
peptide: SYSYMHWY
B47: YSYMHWY (SEQ. ID. No. 64) (peptide)
peptide: YSYMHWY
B48: SYMHWY (SEQ. ID. No. 65) (peptide)
peptide: SYMHWY
B49: VKLQQSGTEVVKPGASVKLS (SEQ. ID. No. 4) (peptide)
peptide: VKLQQSGTEVVKPGASVKLS
notes: also called Peptide # 1
B50: CKASGYIFTSYDIDWVRQTP (SEQ. ID. No. 6) (peptide)
peptide: CKASGYIFTSYDIDWVRQTP
notes: also called Peptide # 3
B51: YDIDWVRQTPEQGLEWIGWI (SEQ. ID. No. 7) (peptide)
peptide: YDIDWVRQTPEQGLEWIGWI
notes: also called Peptide # 4
B52: EQGLEWIGWIFPGEGSTEYN (SEQ. ID. No. 8) (peptide)
peptide: EQGLEWIGWIFPGEGSTEYN
notes: also called Peptide # 5
B53: FPGEGSTEYNEKFKGRATLS (SEQ. ID. No. 9) (peptide)
peptide: FPGEGSTEYNEKFKGRATLS
notes: also called Peptide # 6
B54: EKFKGRATLSVDKSSSTAYM (SEQ. ID. No. 10) (peptide)
peptide: EKFKGRATLSVDKSSSTAYM
notes: also called Peptide # 7

Experiments:
[1] = molecular target: T1, Full length recombinant HBcAg (rHBcAg) encompassing residues 1-183 (hepatitis B virus, UniProt P03146 1-183); experiment: EIA, support-bound peptide, HBcAg 2 ug/well
T1 construct: range 1-183; also called hepatitis B virus core antigen

[2] = molecular target: T2, non-structural 3 protein (NS3) of the hepatitis C virus (HCV) (hepatitis C virus); experiment: EIA, support-bound peptide, HCV NS3 control
T2 construct: Control antigen; also called HCV NS3

[3] = molecular target: T1, Full length recombinant HBcAg (rHBcAg) …; experiment: EIA, support-bound peptide, HBcAg 0.2 ug/well
[4] = molecular target: T1, Full length recombinant HBcAg (rHBcAg) …; experiment: EIA, support-bound peptide, HBcAg 5 ug/ml
[5] = molecular target: T1, Full length recombinant HBcAg (rHBcAg) …; experiment: competition EIA, peptide added to HBcAg before mAb 4-2 (competitor); OD of bound mAb

T1 sequence (P03146 whole entry, the tested form may be a part): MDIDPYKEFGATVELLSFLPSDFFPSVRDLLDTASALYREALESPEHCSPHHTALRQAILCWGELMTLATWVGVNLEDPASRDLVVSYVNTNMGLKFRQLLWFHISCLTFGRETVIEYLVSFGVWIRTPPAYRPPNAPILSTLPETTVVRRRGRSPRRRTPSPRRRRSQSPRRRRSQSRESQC

Binder | OD at 405 nm [1] [OD] | OD at 405 nm [2] [OD] | OD at 405 nm [3] [OD] | OD at 490 nm [4] [OD] | OD at 490 nm [5] [OD]
B1 | 0.363 | 0.041 | 0.134 |  | 
B2 |  | 0.073 |  |  | 
B3 | 0.981 | 0.038 | 0.304 |  | 
B4 | 0.356 | 0.022 | 0.133 |  | 
B5 | 1.44 | 0.028 | 0.574 |  | 
B6 | 0.357 | 0.02 | 0.112 |  | 
B7 | 0.409 | 0.027 | 0.141 |  | 
B8 | 0.649 | 0.206 | 0.205 |  | 
B9 | 0.625 | 0.124 | 0.207 |  | 
B10 | 0.498 | 0.052 | 0.173 |  | 
B11 | 0.273 | 0.024 | 0.084 |  | 
B12 | 0.465 | 0.021 | 0.162 |  | 
B13 | 0.369 | 0.021 | 0.123 |  | 
B14 | 0.289 | 0.028 | 0.114 |  | 
B15 | 0.783 | 0.021 | 0.213 |  | 
B16 | 1.11 | 0.035 | 0.207 |  | 
B17 | 0.338 | 0.106 | 0.114 |  | 
B18 |  | 0.035 |  |  | 
B19 | 1.2 | 0.035 | 0.227 |  | 
B20 | 0.898 | 0.035 | 0.192 |  | 
B21 |  | 0.032 |  |  | 
B22 |  |  |  | 1.34 | 0.202
B23 |  |  |  | 1.72 | 0.182
B24 |  |  |  | 2.86 | 0.205
B25 |  |  |  | 3.22 | 0.207
B26 |  |  |  | 3.36 | 0.175
B27 |  |  |  | 3.7 | 0.152

Binder | OD at 405 nm [1] [OD] | OD at 405 nm [2] [OD] | OD at 405 nm [3] [OD] | OD at 490 nm [4] [OD] | OD at 490 nm [5] [OD]
B28 |  |  |  | 3.69 | 0.808
B29 |  |  |  | 0.565 | 0.777
B30 |  |  |  | 0.297 | 0.784
B31 |  |  |  | 0.255 | 0.851
B32 |  |  |  | 0.237 | 0.866
B33 |  |  |  | 0.407 | 0.92
B34 |  |  |  | 0.389 | 0.887
B35 |  |  |  | 0.414 | 0.903
B36 |  |  |  | 1.45 | 
B37 |  |  |  | 1.42 | 
B38 |  |  |  | 0.324 | 
B39 |  |  |  | 0.31 | 
B40 |  |  |  | 0.282 | 
B41 |  |  |  | 0.305 | 
B42 |  |  |  | 0.369 | 
B43 |  |  |  | 0.372 | 
B44 |  |  |  | 0.317 | 
B45 |  |  |  | 0.311 | 
B46 |  |  |  | 0.283 | 
B47 |  |  |  | 0.245 | 
B48 |  |  |  | 0.218 | 
B49 | 0.323 | 0.021 | 0.124 |  | 
B50 |  | 0.032 |  |  | 
B51 |  | 0.089 |  |  | 
B52 | 0.706 | 0.182 | 0.256 |  | 
B53 | 0.325 | 0.109 | 0.121 |  | 
B54 | 0.883 | 0.035 | 0.194 |  | 
